Measured values reported in US20020035736A1.

Experiments:
[1] = target: native human HER2 (human) (UniProt P04626); test: cell-based or functional assay
[2] = target: native human HER2 (human) (UniProt P04626); test: inhibition of 125I-rHRGβ1 binding to MCF7 monolayers on ice; labeled ligand rHRGβ1

| HRG stimulation of p180 tyrosine phosphorylation in MCF7 cells [1] | maximum inhibition of HRG binding [2] | inhibition of cell proliferation of SK-BR-3 cells (crystal violet) [1] | Substance |
| --- | --- | --- | --- |
| < 25 % of control | 74% | – | murine monoclonal antibody 2C4 |
| – | – | 66% | murine monoclonal antibody 4D5 |
